{
  "source": "patent US20130011378A1",
  "about": "“Stable formulations of a hyaluronan-degrading enzyme” (priority 2011, published 2013)",
  "molecules": {"B1": {"name": "rHuPH20: secreted soluble recombinant human PH20 expressed in CHO cells; nucleic acid encodes amino acids 36-482 of SEQ ID NO:1 (protein, listed as Homo sapiens)", "chain": "LNFRAPPVIPNVPFLWAWNAPSEFCLGKFDEPLDMSLFSFIGSPRINATGQGVTIFYVDRLGYYPYIDSITGVTVNGGIPQKISLQDHLDKAKKDITFYMPVDNLGMAVIDWEEWRPTWARNWKPKDVYKNRSIELVQQQNVQLSLTEATEKAKQEFEKAGKDFLVETIKLGKLLRPNHLWGYYLFPDCYNHHYKKPGYNGSCFNVEIKRNDDLSWLWNESTALYPSIYLNTQQSPVAATLYVRNRVREAIRVSKIPDAKSPLPVFAYTRIVFTDQVLKFLSQDELVYTFGETVALGASGIVIWGTLSIMRSMKSCLLLDNYMETILNPYIINVTLAAKMCSQVLCQEQGVCIRKNWNSSDYLHLNPDNFAIQLEKGGKFTVRGKPTLEDLEQFSEKFYCSCYSTLSCKEKADVKDTDAVDVCIADGVCIDAFLKPPMETEEPQIFY", "modifications": "precursor human PH20"}},
  "key": {"[1]": {"target": "T1, rHuPH20 (Homo sapiens, UniProt P38567)", "T1 construct": "made in house; host or cells: CHO cells (DG44 CHO, HZ24 plasmid, clone 2B2)", "T1 sequence (P38567 36-482)": "B1 chain", "assay": "Differential scanning calorimetry: Tm of rHuPH20", "type": "physicochemical", "conditions": "in the presence of […] m-cresol"}, "[2]": {"target": "T1, rHuPH20", "assay": "Determination of hyaluronidase activity of rHuPH20, turbidimetric assay (Example 2, variant not specified)", "type": "biochemical", "conditions": "for rHuPH20 enzymatic activity: 2-8° C."}},
  "data": [
    {"molecule": "B1", "values": [
      {"measurement": "reduction of Tm of rHuPH20 by DSC", "setting": "[1]", "value": "about 2 °C"},
      {"measurement": "rHuPH20 enzymatic activity", "setting": "[2]; 5 Months, pH 7.0, NaCl 50 mM", "value": 494.4796},
      {"measurement": "rHuPH20 enzymatic activity", "setting": "[2]; 5 Months, pH 7.0, NaCl 80 mM", "value": 575.3274},
      {"measurement": "rHuPH20 enzymatic activity", "setting": "[2]; 5 Months, pH 7.0, NaCl 110 mM", "value": 615.3546},
      {"measurement": "rHuPH20 enzymatic activity", "setting": "[2]; 5 Months, pH 7.0, NaCl 140 mM", "value": 582.4274},
      {"measurement": "rHuPH20 enzymatic activity", "setting": "[2]; 5 Months, pH 7.2, NaCl 50 mM", "value": 481.6035},
      {"measurement": "rHuPH20 enzymatic activity", "setting": "[2]; 5 Months, pH 7.2, NaCl 80 mM", "value": 566.2521},
      {"measurement": "rHuPH20 enzymatic activity", "setting": "[2]; 5 Months, pH 7.2, NaCl 110 mM", "value": 593.2027},
      {"measurement": "rHuPH20 enzymatic activity", "setting": "[2]; 5 Months, pH 7.2, NaCl 140 mM", "value": 585.9948},
      {"measurement": "rHuPH20 enzymatic activity", "setting": "[2]; 5 Months, pH 7.4, NaCl 50 mM", "value": 526.6628},
      {"measurement": "rHuPH20 enzymatic activity", "setting": "[2]; 5 Months, pH 7.4, NaCl 80 mM", "value": 564.7769},
      {"measurement": "rHuPH20 enzymatic activity", "setting": "[2]; 5 Months, pH 7.4, NaCl 110 mM", "value": 618.3856},
      {"measurement": "rHuPH20 enzymatic activity", "setting": "[2]; 5 Months, pH 7.4, NaCl 140 mM", "value": 585.9813},
      {"measurement": "rHuPH20 enzymatic activity", "setting": "[2]; 5 Months, pH 7.6, NaCl 50 mM", "value": 508.0571},
      {"measurement": "rHuPH20 enzymatic activity", "setting": "[2]; 5 Months, pH 7.6, NaCl 80 mM", "value": 546.4209},
      {"measurement": "rHuPH20 enzymatic activity", "setting": "[2]; 5 Months, pH 7.6, NaCl 110 mM", "value": 581.6326},
      {"measurement": "rHuPH20 enzymatic activity", "setting": "[2]; 5 Months, pH 7.6, NaCl 140 mM", "value": 594.6197},
      {"measurement": "rHuPH20 enzymatic activity", "setting": "[2]; 9 Months, pH 7.0, NaCl 50 mM", "value": 436.5115},
      {"measurement": "rHuPH20 enzymatic activity", "setting": "[2]; 9 Months, pH 7.0, NaCl 80 mM", "value": 513.9692},
      {"measurement": "rHuPH20 enzymatic activity", "setting": "[2]; 9 Months, pH 7.0, NaCl 110 mM", "value": 551.0218},
      {"measurement": "rHuPH20 enzymatic activity", "setting": "[2]; 9 Months, pH 7.0, NaCl 140 mM", "value": 554.6513},
      {"measurement": "rHuPH20 enzymatic activity", "setting": "[2]; 9 Months, pH 7.2, NaCl 50 mM", "value": 451.8324},
      {"measurement": "rHuPH20 enzymatic activity", "setting": "[2]; 9 Months, pH 7.2, NaCl 80 mM", "value": 518.0740},
      {"measurement": "rHuPH20 enzymatic activity", "setting": "[2]; 9 Months, pH 7.2, NaCl 110 mM", "value": 553.1847},
      {"measurement": "rHuPH20 enzymatic activity", "setting": "[2]; 9 Months, pH 7.2, NaCl 140 mM", "value": 536.7846},
      {"measurement": "rHuPH20 enzymatic activity", "setting": "[2]; 9 Months, pH 7.4, NaCl 50 mM", "value": 466.1871},
      {"measurement": "rHuPH20 enzymatic activity", "setting": "[2]; 9 Months, pH 7.4, NaCl 80 mM", "value": 509.9032},
      {"measurement": "rHuPH20 enzymatic activity", "setting": "[2]; 9 Months, pH 7.4, NaCl 110 mM", "value": 560.4847},
      {"measurement": "rHuPH20 enzymatic activity", "setting": "[2]; 9 Months, pH 7.4, NaCl 140 mM", "value": 542.4534},
      {"measurement": "rHuPH20 enzymatic activity", "setting": "[2]; 9 Months, pH 7.6, NaCl 50 mM", "value": 464.8964},
      {"measurement": "rHuPH20 enzymatic activity", "setting": "[2]; 9 Months, pH 7.6, NaCl 80 mM", "value": 515.3382},
      {"measurement": "rHuPH20 enzymatic activity", "setting": "[2]; 9 Months, pH 7.6, NaCl 110 mM", "value": 531.9202},
      {"measurement": "rHuPH20 enzymatic activity", "setting": "[2]; 9 Months, pH 7.6, NaCl 140 mM", "value": 523.5385},
      {"measurement": "time rHuPH20 stable", "setting": "[2]; 5° C., […] m-cresol, […] phenol, pH 7.0-7.6, 50-140 mM NaCl", "value": 12, "unit": "months"}
    ]}
  ]
}
